Assay results published in a protein production outcome set (Wang et al. 2014).

Assay: label from the status in PepcDB records

Sequence | protein production
MSIISLDTRVKVGNTDYALSELFELVDQQTSDYGTSLNALKQAVVSGDLTIIQQVLQNSAAALRSLASLQNTLEKVLTLDLADPAQPEHVFIVEDSRGATELKLYKSHYTIGKADSCDIRLHSIYASRQHATLVRFLTENGEVRYRLIDGDPETSRRSANGTYVNNRSITECDLKHYDQILFGADVKATYFYLSPQFRSLTGLQDPTVSLSPDSTTEFEA | failed
MSILDTLKTPVIVAPMAGGPSTPALVNAAAEAGSLGFLAGGVMPLEQLKQELSEVKGVFGVNLFRPQTDAPKPSDIDELAGLLSSAFRQFGLDEPTVPTPDLSNGWEAKFEAVLAAKPAVFSCTFGIFSAEEFARIKATGIEAWVTVTNPEDALAAQKAGANALVVQGPEAGGHRSTWSIEVEPDERDLKTLLAAVKQAGVYLPLIAAGGLSTSADVAAILEAGASAASCGSAFLLSDEAGTSSLNREILDAAPALGLESVSSRAFSGRYARGVETRFTRSNEGLPPLYPYLNPMITSLRKVAGSAGNWDYAYCLVGVGLESIAKGSAKQILESLTPSALG | failed
MSILVIGANGGVGSKLVSQLNEEHVDFTAGVRKEDQVKELENKGIKATLIDVEKNSINDLKNIFTDYDKVIFSVGSGGSTGADKTIIVDLDGAVKTIKASKEAGIKHYVMVSTYDSRREAFDASGDLKPYTIAKHYADDYLRTSDLNYTIVHPGSLTDDAGTGKIEADLYFDKAGSIPREDVATVLKEVVTSDGFNNQEFQILSGNHGVKDALKNYESLEHHHHHH | not failed
MSINTKENIDAIFEKLESFLKSKTVIGEPIKIGETTIIPFIDITFGLGTGGGGGKDEKGNDGTGSGAGAGAKISATAVLVIKGEQVELLPIKKAGGLEKLLDMVPELEHHHHHH | not failed
MSIRIKLPDGSVREFEEEASIEDVAASISCGLEHAVAGKLNGKLVDLSTPLQDGALVEIVTRDSAEGQKIVREKSRGKGRIVALDAARGLAVIGMYLQHFALNETNGSIVSGNTTLLFVLCGGISYSIMAGRMMDRGMEPAAFRTRMLARAVFIDMIGYLLIMLNTPFGVILPAYAALFVLALVLIRRSTRVLVTTAAVLLAVSPPLMILGGSVLSGANLLGDIAGGPMSALALAPAFVAGMAIGRFDLTRMRTALSLVSSGAVMLIVSKLLGVFVLPWLSRSFEEWLVSVQGTAGAEPDQYAIWPHNVAPPLWHNLLSIAPHSASTFQTMLGLGAAFLVLGMVCLVPQKISAVLKPFAGVGRVALTMYAAQFVVIWALEISGAKYDIGAIPFGDLFVAAVATVTGWLIARLPTGPLETAMRRFDRAFSNLGPVTGPARLR | failed
MSITYSAISFSGFSPKSVPFAIHSVTRRQFLNPNTFYRFGFSPSLQGSSIEFSLQLNSRVVLSKERRSLPLVVRNDRPQNEDLPKQYTRREKKPFPVPIVDLRRAARERVKNNKDKPKRPLPPPKNGMVVKSLVPLAYKVYNARIRLINNLHRLMKVVRVNACGWCNEIHVGPYGHPFKSCKGPNTSQRKGLHEWTNSVIEDVIVPLEAYHLFDRLGKRIRHDERFSIPRVPAVVELCIQGGVEIPEFPAKRRRKPIIRIGKSEFVDADETELPDPEPQPPPVPLLTELPVSEITPPSSEEETVSLAEETLQAWEEMRAGAKKLMRMYRVRVCGYCPEVHVGPTGHKAQNCGAFKHQQRNGQHGWQSAVLDDLIPPRYVWHVPDVNGPPMQRELRSFYGQAPAVVEICAQAGAVVPEHYRATMRLEVGIPSSVKEAEMVV | failed
MSIYDPNPDQSLARIDALEKELANLKASHNTLDIQNKILKGFISLTNVSAGRMLIKATLQKTMEASIHQTGAQLGSLFLLDGDGRVTESILARGATDQSQKKNIVGQVLDKGLAGWVRENKRTGLINDTTKDYRWLKLPDEPYQALSALGVPIVWGDELLGILTLMHSQVNHFTPACATAMEKTAELIALVLNNARIQTKHKQNETLIQQEDDLLNQAILWFPSIIFILDNQGVLLKCGGKYLAQIGLDPKESIGKSIYYLLPEANELKSLTSHALANNIIESVSVQMERVDHGTWFYDAWFSPILDNHGQVSNVVCMLLPA | failed
MSKCGVRARLLGLCTERASAWAMALIALVAGGLLTAALAFAAHTFYKQQLRQRFELLASERASRIAERFDEQQQRLDGLRRFFSFSSEITPREFDGYARPLLQRTLAYAWAPRVEAAQRAEFERLASAHTGPGYVIRDQDAQGQWRPASQRDHYFPVLYTQSSERPGLPYGLDLAGQSEPQAALARALAPALAPGSMAVSEPLALFDTQSAERGLLMVAPVFSDADPRGAAVGYVMALLSMRELVSDGRPVAVDDNLVVRITDPSGLQGPVVLFDSQNPVAPLALASNQLLRLADHHFQLSIQPSQAFAQANRSSAVMAVGLLGGLLSLLLSVLLYSLFSQRQRALALVAQRTAELQVSEQSLRGTHNQLRSVLDAATQVAIIATNLKGVVSTFNAGAERMLGYAASEAIGRLRLEDLVLPEELNLRAQALSLRFGRAIAGGQAMFAETVQEHGAEPGEWTLLRADGSQLVANMLVTAMLDEQGLWVGYLAICIDVTERRRVHEALAARDRLLEKLSAEVPGGIYQYRLDANGHSCFPYASMGLYDIYEIDLMQLREDASAVFERIHPDDLERVRRSVRYSAEHLSPWREEYRVCLPRAGLRWVRGEATPEVGEQGCTLWHGYLTDISDLKGVEEELRALSVTDSLTGIHNRRYFQERLKIELERAQRDGLPLAVIMLDIDHFKRINDRFGHAVGDRVLRSLCQRIAQRLRRTDVFCRLGGEEFMVLCPGSDANQARLLALELWQGVRNVPVEGVGQVTASFGVAGWRSGEGADALLLRADAGVYAAKQAGRDRVEGEPV | failed
MSKEDAWNMVTIYPAKQLRVDEYVGSLTPGKMADIVLWNAEPLSIYAKVTHAWVEGKRYFDREQDQLAQLEHHHHHH | failed
MSKEPIIKLDNIDVTFHQKKREINAVKDVTIHINQGDIYGIVGYSGAGKSTLVRVINLLQEPSAGKITIDDQVIYDNKVTLTSTQLREQRREIGMIFQHFNLMSQLTAEQNVAFALKHSGLSKEAKAAKVAKLLELVGLSDRAQNYPSQLSGGQKQRVAIARALANDPKILISDESTSALDPKTTKQILALLQDLNKKLGLTIVLITHEMQIVKDIANRVAVMQNGKLIEEGSVLDIFSHPRESLTQDFIKIATGIDEAMLKIEQQEVVKNLPVGSKLVQLKYAGHSTDEPLLNQIYKEFEVTANILYGNIEILDGIPVGEMVVILSGDEEKLRQACQAITDSQVQLTLLKEGGKA | failed
MSKFDGYFLRQLLVLCGFFAFVLVGVFWISKAVSLFDRLISSGQTAMVALEFTALTLPTLVRTVMPMAAFCATVYVTNRLNRESEMTVMLATGSSPFRLARPVILFGLVCAAMLATITLYLRPAAMLRLEARQAEVAGDMTAQLLNDGQFMHPVKGVTVYIGKIDRDGTLNDVYLSDRRAPERVVTYTSSKAFLARSGEQIALVMVEGTALQMETGRRTLSTTVFRDFSYDISALAKRDIERRQDIRGMPTLALATAFDGEGLAETYSRGEISEELQERLSWIGVSVAVTLIGFSTLMLGTFSRFGLWPQLIAAFAGLIALEGMRSTATAFVGSHPGLWWVQHAPALGGIALSILFLKLAGRPLRLRRYPDTGSV | failed
MSKHLCFTAFSSIALFLLCFSSWASAVAPAEINEARLVAQYNYSINILAMLLVGFGFLMVFVRRYGFSATTGTYLVVATGLPLYILLRANGIFGHALTPHSVDAVIYAEFAVATGLIAMGAVLGRLRVFQYALLALFIVPVYLLNEWLVLDNASGLTEGFQDSAGSIAIHAFGAYFGLGVSIALTTAAQRAQPIESDATSDRFSMLGSMVLWLFWPSFATAIVPFEQMPQTIVNTLLALCGATLATYFLSALFHKGKASIVDMANAALAGGVAIGSVCNIVGPVGAFVIGLLGGAISVVGFVFIQPMLESKAKTIDTCGVHNLHGLPGLLGGFSAILIVPGIAVAQLTGIGITLALALIGGVIAGALIKLTGTTKQAYEDSHEFIHLAGPEDEHKAERLVLEAKTEIQGLKNRIDAAVLSAKSEG | not failed
